Values joined by “and” are separate entries in the source; they are usually repeats but may differ in a detail not shown here. Identical values can stand only once.
What was measured:
[1] = target: Vangl2-Long (70 kD isoform), endogenous mouse (mouse (endogenous in IMCD3)); assay: co-IP; endogenous proteins; SKBR7 or IMCD3 cell lysates (50 mM Hepes-NaOH pH 8, 150 mM NaCl, 10% glycerol, 2 mM EDTA, 0.5% NP-40) incubated overnight at 4 °C with N-VGL2 pAb (VANGL2-Long specific) or mAb 36E3, protein A or G beads; blots with mAb 36E3 and mAb 19D5; 62 kD and 70 kD bands quantified for the ratio
[2] = target: Vangl2-Long (70 kD isoform), endogenous mouse (mouse (endogenous in IMCD3)); assay: co-IP; serial IP of endogenous proteins from IMCD3 cell extracts: two successive rounds of IP with N-VGL2 pAb, then IP of the Vangl2-Long depleted lysate with a Vangl1-specific antibody

B1: Vangl2 (canonical 62 kD isoform), endogenous mouse (natural protein)
chain: MDTESQYSGYSYKSGHSRSSRKHRDRRDRHRSKSRDGSRGDKSVTIQAPGEPLLDNESTRGDERDDNWGETTTVVTGTSEHSISHDDLTRIAKDMEDSVPLDCSRHLGVAAGAILALLSFLTPLAFLLLPPLLWREELEPCGTACEGLFISVAFKLLILLLGSWALFFRRPKASLPRVFVLRALLMVLVFLLVISYWLFYGVRILDARERSYQGVVQFAVSLVDALLFVHYLAVVLLELRQLQPQFTLKVVRSTDGASRFYNVGHLSIQRVAVWILEKYYHDFPVYNPALLNLPKSVLAKKVSGFKVYSLGEENSTNNSTGQSRAVIAAAARRRDNSHNEYYYEEAEHERRVRKRRARLVVAVEEAFTHIKRLQEEEQKNPREVMDPREAAQAIFASMARAMQKYLRTTKQQPYHTMESILQHLEFCITHDMTPKAFLERYLAAGPTIQYHKERWLAKQWTLVSEEPVTNGLKDGIVFLLKRQDFSLVVSTKKVPFFKLSEEFVDPKSHKFVMRLQSETSV
Question: Which results are given for B1?
Answer: stoichiometry N (Vangl2 per Vangl2-Long) [1]: 3 and 4; percent of Vangl2 depleted by IP of Vangl2-Long [2]: 50%

From article PMC11065751
